Laboratory results as given in PMC5903968.

Target: MMP-2 catalytic domain (MMP-2CAT) (UniProt P08253)
Experiment: enzyme inhibition assay

MMP-2 catalytic domain (MMP-2CAT), sequence (P08253 30-660): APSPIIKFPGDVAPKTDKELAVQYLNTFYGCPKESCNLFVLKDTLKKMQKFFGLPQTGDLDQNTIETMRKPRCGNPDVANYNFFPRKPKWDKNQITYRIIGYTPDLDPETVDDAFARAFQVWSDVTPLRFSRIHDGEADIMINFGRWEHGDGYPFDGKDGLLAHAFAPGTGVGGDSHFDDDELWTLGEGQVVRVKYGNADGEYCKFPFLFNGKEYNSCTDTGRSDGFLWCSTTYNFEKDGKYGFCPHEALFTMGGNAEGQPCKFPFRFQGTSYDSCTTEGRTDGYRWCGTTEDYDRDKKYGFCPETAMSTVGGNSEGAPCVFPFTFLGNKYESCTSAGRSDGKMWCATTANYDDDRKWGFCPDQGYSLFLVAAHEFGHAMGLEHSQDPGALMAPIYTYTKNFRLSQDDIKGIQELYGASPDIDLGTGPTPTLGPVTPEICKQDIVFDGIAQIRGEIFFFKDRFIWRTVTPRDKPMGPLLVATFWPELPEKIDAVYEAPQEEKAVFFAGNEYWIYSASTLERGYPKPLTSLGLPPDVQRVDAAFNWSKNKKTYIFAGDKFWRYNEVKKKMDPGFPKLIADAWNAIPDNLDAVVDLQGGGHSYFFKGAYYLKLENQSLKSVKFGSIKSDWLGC

Ki: 2.65 nM
Substance: N-terminal domain of TIMP-2 (N-TIMP2), wild type (from UniProt P16035 27-152) (domain or fragment)
